Experimental findings from the supplement of paper PMC9170038 are described below.

The data set concerns MS2 coat protein. The data set is described as follows: apparent KD of MS2 coat protein; higher = weaker reporter binding. Particulars: Eterna round: R107. How it is done:
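RNA-MaP round R107: designed RNA switches with theophylline, tryptophan, arginine or FMN aptamers are transcribed on-chip within common flanks. They are titrated with SNAP-549-labelled MS2 coat protein in RNA-MaP buffer (100 mM Tris pH 7.5, 80 mM KCl, 4 mM MgCl2), without ligand or with the indicated ligand. Median apparent KD per design.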

Where [1] appears, read: input ligand: theophylline 20 uM.
[2] abbreviates: input ligand: tryptophan 2.4 mM.
Setting [3] is: input ligand: theophylline 2 mM.

As to “AAUAACAUGAGGAUCACCCAUGUAAAAGAUACCAGAGUGAUGAUCCUCCCUUGGCAGCUUAAACGCUAUUGAUUACAAUAGCGAA [Mat - Same State Theophlline A - Mod of Eli - D2]”, the “apparent KD of MS2 coat protein” value runs as follows: (input ligand: arginine 13.2 mM) 29.8 nM; under setting [1], 114 nM; under setting [2], 28.6 nM.
Take “AAUAAUAUCCUCAUGUGAGUCGUACCGUAACGAGGACCGGUACGGCCGCCACUCGAACAUGAGGAUCACCCAUGUAGGUACGACA [M'-T'-T-MS2-T'' - Design 8]”: the “apparent KD of MS2 coat protein” value runs as follows: (input ligand: arginine 13.2 mM) 42.1 nM; under setting [1], 182 nM; under setting [3], 238 nM.
For the sequence “AAUAAUCUAGGUGAUACCAGCUCAACAUGAGGAUCACCCAUGUACUCAUGUAGAGUUGAGAGCCCUUGGCAGCACCUAGAUAAUA [(Theo1)-(Ms2)-(M)'-(T)'-(Theo2)]”, the “apparent KD of MS2 coat protein” value is, setting by setting: (input ligand: arginine 13.2 mM) 198 nM; under setting [1], 665 nM; under setting [2], 1020 nM.
Consider “AAUAUAAGUGUAAUUAUAUGUAUCUCUGAUACCAGACUCUCAUGUGUCCCUUGGCAGCAGUUACAUGAGGAUCACCCAUGUAUUA [JR_Nu_SSTheophyA_Sub024]”, for which the “apparent KD of MS2 coat protein” value runs as follows: (input ligand: arginine 13.2 mM) 34.3 nM; under setting [1], 80.2 nM; under setting [2], 84.5 nM.
For the sequence “AAUCUGUCGGGUGAUACCAGCCUCGGCGCAUCUCACGCUGAACAUGAGGAUCACCCAUGUGGCCCUUGGCAGCACAUGACAAAUC [Tivece]”, the “apparent KD of MS2 coat protein” value is, setting by setting: (input ligand: arginine 13.2 mM) 202 nM; under setting [1], 709 nM; under setting [2], 620 nM.
“ACACACAUGAGGAUCACCCAUGUAAUAGAUACCAGUGACGCGGUGCACCCUUGGCAGCUGCUGCUGAGUGAUGGUUCCCUCGGAA [Exclusion Theophylline A GF7]”: the “apparent KD of MS2 coat protein” value (input ligand: arginine 13.2 mM) amounted to 16.8 nM, the “apparent KD of MS2 coat protein” value under setting [1] came out at 25.9 nM and the “apparent KD of MS2 coat protein” value under setting [2] worked out at 19.2 nM.
Turning to “ACACAUGAUAGAAGGAGCGCAAUGAACACACAUGAGGAUCACCCAUGUUUUUUUUGUGUUUUGCAGGUAGGUCGCUAACAUGAGG [Same State Arginine B 4]”, the “apparent KD of MS2 coat protein” value (input ligand: arginine 13.2 mM) worked out at 11 nM; the “apparent KD of MS2 coat protein” value (input ligand: none) came out at 8.66 nM; the “apparent KD of MS2 coat protein” value under setting [1] worked out at 23.6 nM; the “apparent KD of MS2 coat protein” value under setting [3] was determined as 11 nM; the “apparent KD of MS2 coat protein” value under setting [2] turned out to be 8.32 nM.
On to “ACACGAGGAUCACCCGUGUCAUGUGGUGAUACCAGUUUACAUGAGAACCCUUGGCAGCAUAACAACAUGAGGAUCACCCAUGUCA [Same State - Theophylline A #1]”, for which the “apparent KD of MS2 coat protein” value runs as follows: (input ligand: arginine 13.2 mM) 24.4 nM; under setting [1], 40.4 nM; under setting [2], 35 nM.
The corresponding values for “ACAUCCAGAUUAAUCGUGGGCAUACUCGAUACCAGUAUUUUAACCUACCCUUGGCAGCGACAUGAGGAUCACCCAUGUGAGAUGA [XTheo A #10]” are 21.4 nM, 25.2 nM and 23.8 nM.
The corresponding values for “ACAUGAAGAACAGCGGUGGGCGCGCUCGAUACCAGUAUUUUAAACUACCCUUGGCAGCGACAUGAGGAUCACCCAUGUGAGAUGA [XTheo A #6]” are 16.9 nM, 21.8 nM and 19.5 nM.
As for “ACAUGAGGAUCACCCAUGUAAAUAGCGGAAGGAGCGUGCAAAAGCACAGGUAGGUCGCCGAUAUAAUAAUUGGGUAAUAUAUUAU [#27 Exclusion - Arginine A]”, the “apparent KD of MS2 coat protein” value by setting is: (input ligand: arginine 13.2 mM) 17.7 nM; (input ligand: none) 39.1 nM; under setting [1], 24.6 nM; under setting [3], 26.2 nM; under setting [2], 26.9 nM.
For “ACAUGAGGAUCACCCAUGUAACGGCAUAAUCGAGGACCGGUACGGCCGCCACUCGGAAUCAGUGACAGGCAUAUUUAUUAUAAGA [Eclusion - Tryptophan A / A]”, the “apparent KD of MS2 coat protein” value was 12 nM (input ligand: arginine 13.2 mM), 15.6 nM under setting [1] and 11.5 nM under setting [3].
On to “ACAUGAGGAUCACCCAUGUAAGAUUCAGAAGGAGCGGGAAAUAACCCAGGUAGGUCGCUGAAGUUUGGUUUAUUGUGUUCGUGAA [#07 Exclusion - Arginine A]”, for which the “apparent KD of MS2 coat protein” value runs as follows: (input ligand: arginine 13.2 mM) 10.2 nM; (input ligand: none) 10.4 nM; under setting [1], 13.3 nM; under setting [3], 11.5 nM; under setting [2], 11.5 nM.
On to “ACAUGAGGAUCACCCAUGUCAUGAGGUUCACGAGGACCGGUACGGCCGCCACUCGACAUGAGGGUCACCCGUGAACGGAACACCC [kpmullin]”, for which the “apparent KD of MS2 coat protein” value (input ligand: arginine 13.2 mM) was determined as 14.7 nM, the “apparent KD of MS2 coat protein” value under setting [1] is 23.6 nM and the “apparent KD of MS2 coat protein” value under setting [3] was found to be 17.7 nM.
As for “ACAUGAGGAUCACCCAUGUCUGCCACUGAUACCAGCGGAAGCCCACGCCCUUGGCAGCAGAACAUGAGGAUCACCCAUGUAGGCU [Same State Theophylline A GF28]”, the “apparent KD of MS2 coat protein” value is, setting by setting: (input ligand: arginine 13.2 mM) 55.8 nM; under setting [1], 186 nM; under setting [2], 201 nM.
With “ACAUGAGGAUCACCCAUGUGAAGCAGGGUACGAGGACCGGUACGGCCGCCACUCGAACAUUAUAACGAGUGAAUGGCAACGAUGU [B15Jan]”, the “apparent KD of MS2 coat protein” value is 15.7 nM (input ligand: arginine 13.2 mM), 18.5 nM under setting [1] and 13.8 nM under setting [3].
Regarding “ACAUGAGGAUCACCCAUGUGAAGGCACGAUACCAGCUGAUCCCGUGGCCCUUGGCAGCGUCACGUUUGGUCCCGCGGAUGAGACG [crcmullin]”, the “apparent KD of MS2 coat protein” value is 20.8 nM (input ligand: arginine 13.2 mM); 14.2 nM (input ligand: none); 21.5 nM under setting [1]; 17 nM under setting [3]; 13.8 nM under setting [2].
For “ACAUGAGGAUCACCCAUGUUCCUCAUUGAUACCAGUGAAUUUAGACGCCCUUGGCAGCGAGUUUUUGAAGAAGAAGUUUUUUUUU [6.D]”, the “apparent KD of MS2 coat protein” value is, setting by setting: (input ligand: arginine 13.2 mM) 235 nM; under setting [1], 731 nM; under setting [2], 1080 nM.
For the sequence “ACAUGAGGAUCACCCAUGUUCCUCAUUGAUACCAGUGAAUUUAGACGCCCUUGGCAGCGAGUUUUUUAAGAAGAAGUUUUUUUUU [6.E]”, the “apparent KD of MS2 coat protein” value is, setting by setting: (input ligand: arginine 13.2 mM) 551 nM; under setting [1], 793 nM; under setting [2], 992 nM.
